In this assay the target is BACE1 endogenous to primary cortical neurons from E16.5 CD1 mice (mouse) (UniProt P56818). Description: cell-based or functional assay.
BACE1 endogenous to primary cortical neurons from E16.5 CD1 mice (mouse), sequence (P56818 46-501): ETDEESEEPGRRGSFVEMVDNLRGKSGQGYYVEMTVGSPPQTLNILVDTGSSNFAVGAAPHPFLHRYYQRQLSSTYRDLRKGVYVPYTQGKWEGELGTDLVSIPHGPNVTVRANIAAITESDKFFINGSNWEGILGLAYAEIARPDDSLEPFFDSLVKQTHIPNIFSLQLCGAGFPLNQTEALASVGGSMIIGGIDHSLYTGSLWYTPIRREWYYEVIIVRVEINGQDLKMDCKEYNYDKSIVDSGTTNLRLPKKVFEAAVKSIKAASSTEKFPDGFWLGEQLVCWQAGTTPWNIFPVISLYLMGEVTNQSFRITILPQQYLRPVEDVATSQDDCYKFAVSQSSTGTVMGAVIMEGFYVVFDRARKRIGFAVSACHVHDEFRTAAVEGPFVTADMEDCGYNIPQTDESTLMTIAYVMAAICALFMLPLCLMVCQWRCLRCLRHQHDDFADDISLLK

antibody YW412.8.31 displayed an IC50, inhibition of Aβx-40 production in primary mouse cortical neuron cultures (sandwich ELISA of supernatants) of 2.9 nM and a maximum inhibition of Aβx-40 production in primary mouse cortical neuron cultures of 62%.

For the origin of these results see patent US20210206877A1.
